# Assay results as given in US10925971B2, “Methods of treating PRLR positive breast cancer” (Regeneron Pharmaceuticals, Inc., priority 2016, dated 2021).
# Biological target: T1, hPRLR-mmH (SEQ ID NO:406) (Homo sapiens, UniProt P16471)
# T1 construct: this experiment was conducted with a truncated form of PRLR (i.e., hPRLR-mmH)
# Experiment: Epitope mapping by hydrogen/deuterium exchange with MALDI-TOF MS
# Assay type: binding
# Experimental: Experiments were conducted to determine the amino acid residues of PRLR with which H1H6958N2 interacts. For this purpose hydrogen/deuterium (H/D) exchange epitope mapping was carried out. A general description of the H/D exchange method is set forth in e.g., Ehring (1999) Analytical Biochemistry 267(2):252-259; and Engen and Smith (2001) Anal. Chem. 73:256A-265A.
# To map the binding epitope(s) of antibody H1H6958N2 on hPRLR via H/D exchange, a construct comprising a recombinant extracellular domain of hPRLR with a C-terminal myc-myc-hexahistidine tag (hPRLR-mmH; SEQ ID NO: SEQ ID NO:406) was buffer exchanged to PBS with a final concentration of 8 mg/mL, and antibody H1H6958N2 was covalently attached to N-hydroxysuccinimide (NHS) agarose beads (GE Lifescience)
# In the ‘on-solution/off-beads’ (on-exchange in solution followed by off-exchange on beads) experiment, the hPRLR was deuterated for 5 min or 10 min in PBS buffer prepared with D2O, and then bound to H1H6958N2 beads through a 2 min incubation. The hPRLR-bound beads were washed with PBS aqueous buffer (prepared with H2O) and incubated PBS buffer for half of the on-exchange time. After the off-exchange, the bound hPRLR was eluted from beads with an ice-cold low pH TFA solution. The eluted hPRLR was then digested with immobilized pepsin (Thermo Scientific) for 5 min. The resulting peptides were desalted using ZipTip® chromatographic pipette tips and immediately analyzed by UltrafleXtreme matrix assisted laser desorption ionization time of flight (MALDI-TOF)-TOF mass spectrometry (MS).
# In the ‘on-beads/off-beads’ (on-exchange on beads followed by off-exchange on beads) experiment, hPRLR was first bound to H1H6958N2 beads and then incubated for 5 min or 10 min in D2O for on-exchange. The following steps (off-exchange, pepsin digestion, and MS analysis) were carried out as described for the ‘on-solution/off-beads’ procedure. The centroid values or average mass-to-charge ratios (m/z) of all the detected peptides were calculated and compared between these two sets of experiments.
# The results are summarized in Table 29 which provides a comparison of the centroid m/z values for all the detected peptides identified by liquid chromatography and MS following the H/D exchange and peptic digest procedure described above. For purposes of the present Example, a positive difference (A) of at least 0.20 m/z in both experiments indicates amino acids protected by antibody binding. Segments meeting this criterion are indicated by bold text and an asterisk (*) in Table 29. [Note that, although this experiment was conducted with a truncated form of PRLR (i.e., hPRLR-mmH; SEQ ID NO: 406), residue numbering in the far left column of Table 29 has been adjusted to correspond to the amino acid sequence of the full-length PRLR protein represented by SEQ ID NO: 404.]
# [1] = hPRLR peptide residues 168-180 of SEQ ID NO: 404, Experiment II 10 min on-/5 min off-exchange
# [2] = hPRLR peptide residues 169-180 of SEQ ID NO: 404, Experiment I 5 min on-/2.5 min off-exchange
# [3] = hPRLR peptide residues 169-180 of SEQ ID NO: 404, Experiment II 10 min on-/5 min off-exchange
# [4] = hPRLR peptide residues 170-179 of SEQ ID NO: 404, Experiment I 5 min on-/2.5 min off-exchange
# [5] = hPRLR peptide residues 170-179 of SEQ ID NO: 404, Experiment II 10 min on-/5 min off-exchange
# [6] = hPRLR peptide residues 170-180 of SEQ ID NO: 404, Experiment I 5 min on-/2.5 min off-exchange
# [7] = hPRLR peptide residues 170-180 of SEQ ID NO: 404, Experiment II 10 min on-/5 min off-exchange
# [8] = hPRLR peptide residues 191-205 of SEQ ID NO: 404, Experiment I 5 min on-/2.5 min off-exchange
# [9] = hPRLR peptide residues 191-205 of SEQ ID NO: 404, Experiment II 10 min on-/5 min off-exchange
# [10] = hPRLR peptide residues 192-202 of SEQ ID NO: 404, Experiment I 5 min on-/2.5 min off-exchange
# [11] = hPRLR peptide residues 192-202 of SEQ ID NO: 404, Experiment II 10 min on-/5 min off-exchange
# [12] = hPRLR peptide residues 192-205 of SEQ ID NO: 404, Experiment I 5 min on-/2.5 min off-exchange
# [13] = hPRLR peptide residues 192-205 of SEQ ID NO: 404, Experiment II 10 min on-/5 min off-exchange
# [14] = hPRLR peptide residues 206-215 of SEQ ID NO: 404, Experiment I 5 min on-/2.5 min off-exchange
# [15] = hPRLR peptide residues 206-215 of SEQ ID NO: 404, Experiment II 10 min on-/5 min off-exchange
# [16] = hPRLR peptide residues 206-217 of SEQ ID NO: 404, Experiment I 5 min on-/2.5 min off-exchange
# [17] = hPRLR peptide residues 206-217 of SEQ ID NO: 404, Experiment II 10 min on-/5 min off-exchange
# [18] = hPRLR peptide residues 206-222 of SEQ ID NO: 404, Experiment I 5 min on-/2.5 min off-exchange
# [19] = hPRLR peptide residues 206-222 of SEQ ID NO: 404, Experiment II 10 min on-/5 min off-exchange
# [20] = hPRLR peptide residues 236-249 of SEQ ID NO: 404, Experiment I 5 min on-/2.5 min off-exchange
# [21] = hPRLR peptide residues 236-249 of SEQ ID NO: 404, Experiment II 10 min on-/5 min off-exchange
# [22] = hPRLR peptide residues 238-261 of SEQ ID NO: 404, Experiment I 5 min on-/2.5 min off-exchange
# [23] = hPRLR peptide residues 238-261 of SEQ ID NO: 404, Experiment II 10 min on-/5 min off-exchange
# [24] = hPRLR peptide residues 241-261 of SEQ ID NO: 404, Experiment I 5 min on-/2.5 min off-exchange
# [25] = hPRLR peptide residues 241-261 of SEQ ID NO: 404, Experiment II 10 min on-/5 min off-exchange
# [26] = hPRLR peptide residues 250-261 of SEQ ID NO: 404, Experiment I 5 min on-/2.5 min off-exchange
# [27] = hPRLR peptide residues 250-261 of SEQ ID NO: 404, Experiment II 10 min on-/5 min off-exchange
# T1 sequence (P16471 with tags, fused parts or gaps): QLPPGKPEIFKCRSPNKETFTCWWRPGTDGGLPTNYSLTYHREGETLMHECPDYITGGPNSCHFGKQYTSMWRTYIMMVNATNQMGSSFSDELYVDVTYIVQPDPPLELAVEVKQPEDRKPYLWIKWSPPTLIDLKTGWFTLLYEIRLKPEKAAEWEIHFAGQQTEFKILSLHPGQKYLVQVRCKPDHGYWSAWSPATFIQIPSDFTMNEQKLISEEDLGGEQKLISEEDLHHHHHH
molecule,measurement,setting,value
"H1H6958N2: anti-PRLR antibody, receptor blocking, human IgG1 Fc form of H2M6958N2 of Table 1; HCVR/LCVR SEQ ID NOs 290/298 (antibody, V domains shown) VH: QVQLVESGGGVVQPGRSLRLSCGASGFTFRNYGMQWVRQGPGKGLEWVTLISFDGNDKYYADSVKGRFTISRDNSKNTLFLQMNSLRTEDTAVYYCARGGDFDYWGQGTLVTVSS VL: DIQMTQSPSSLSASVGDRVTITCRASQDIRKDLGWYQQKPGKAPKRLIYAASSLHSGVPSRFSGSGSGTEFTLTISSLQPEDFATYYCLQHNSYPMYTFGQGTKLEIK",Δ (centroid m/z difference),"hPRLR peptide residues 168-180 of SEQ ID NO: 404, Experiment I 5 min on-/2.5 min off-exchange",−0.06 m/z
same,"centroid m/z, on-beads/off-beads",[1],1633.64 m/z
same,"centroid m/z, on-solution/off beads",[1],1633.71 m/z
same,Δ (centroid m/z difference),[1],0.08 m/z
same,"centroid m/z, on-beads/off-beads",[2],1469.86 m/z
same,"centroid m/z, on-solution/off beads",[2],1469.67 m/z
same,Δ (centroid m/z difference),[2],−0.19 m/z
same,"centroid m/z, on-beads/off-beads",[3],1469.67 m/z
same,"centroid m/z, on-solution/off beads",[3],1469.71 m/z
same,Δ (centroid m/z difference),[3],0.04 m/z
same,"centroid m/z, on-beads/off-beads",[4],1155.35 m/z
same,"centroid m/z, on-solution/off beads",[4],1155.40 m/z
same,Δ (centroid m/z difference),[4],0.05 m/z
same,"centroid m/z, on-beads/off-beads",[5],1155.39 m/z
same,"centroid m/z, on-solution/off beads",[5],1155.40 m/z
same,Δ (centroid m/z difference),[5],0.01 m/z
same,"centroid m/z, on-beads/off-beads",[6],1341.66 m/z
same,"centroid m/z, on-solution/off beads",[6],1341.62 m/z
same,Δ (centroid m/z difference),[6],−0.04 m/z
same,"centroid m/z, on-beads/off-beads",[7],1341.34 m/z
same,"centroid m/z, on-solution/off beads",[7],1341.49 m/z
same,Δ (centroid m/z difference),[7],0.15 m/z
same,"centroid m/z, on-beads/off-beads",[8],1772.03 m/z
same,"centroid m/z, on-solution/off beads",[8],1772.03 m/z
same,Δ (centroid m/z difference),[8],−0.01 m/z
same,"centroid m/z, on-beads/off-beads",[9],1772.28 m/z
same,"centroid m/z, on-solution/off beads",[9],1772.15 m/z
same,Δ (centroid m/z difference),[9],−0.13 m/z
same,"centroid m/z, on-beads/off-beads",[10],1284.39 m/z
same,"centroid m/z, on-solution/off beads",[10],1284.36 m/z
same,Δ (centroid m/z difference),[10],−0.03 m/z
same,"centroid m/z, on-beads/off-beads",[11],1284.43 m/z
same,"centroid m/z, on-solution/off beads",[11],1284.32 m/z
same,Δ (centroid m/z difference),[11],−0.11 m/z
same,"centroid m/z, on-beads/off-beads",[12],1624.98 m/z
same,"centroid m/z, on-solution/off beads",[12],1624.94 m/z
same,Δ (centroid m/z difference),[12],−0.04 m/z
same,"centroid m/z, on-beads/off-beads",[13],1625.17 m/z
same,"centroid m/z, on-solution/off beads",[13],1625.08 m/z
same,Δ (centroid m/z difference),[13],−0.10 m/z
same,"centroid m/z, on-beads/off-beads",[14],1261.33 m/z
same,"centroid m/z, on-solution/off beads",[14],1261.44 m/z
same,Δ (centroid m/z difference),[14],0.11 m/z
same,"centroid m/z, on-beads/off-beads",[15],1261.46 m/z
same,"centroid m/z, on-solution/off beads",[15],1261.24 m/z
same,Δ (centroid m/z difference),[15],−0.22 m/z
same,"centroid m/z, on-beads/off-beads",[16],1419.65 m/z
same,"centroid m/z, on-solution/off beads",[16],1419.64 m/z
same,Δ (centroid m/z difference),[16],−0.01 m/z
same,"centroid m/z, on-beads/off-beads",[17],1419.45 m/z
same,"centroid m/z, on-solution/off beads",[17],1419.48 m/z
same,Δ (centroid m/z difference),[17],0.02 m/z
same,"centroid m/z, on-beads/off-beads",[18],1962.39 m/z
same,"centroid m/z, on-solution/off beads",[18],1962.58 m/z
same,"centroid m/z, on-beads/off-beads",[19],1962.63 m/z
same,"centroid m/z, on-solution/off beads",[19],1962.52 m/z
same,Δ (centroid m/z difference),[19],−0.10 m/z
same,"centroid m/z, on-beads/off-beads",[20],1560.76 m/z
same,"centroid m/z, on-solution/off beads",[20],1560.81 m/z
same,Δ (centroid m/z difference),[20],0.05 m/z
same,"centroid m/z, on-beads/off-beads",[21],1560.83 m/z
same,"centroid m/z, on-solution/off beads",[21],1560.81 m/z
same,Δ (centroid m/z difference),[21],−0.01 m/z
same,"centroid m/z, on-beads/off-beads",[22],2827.99 m/z
same,"centroid m/z, on-solution/off beads",[22],2828.15 m/z
same,Δ (centroid m/z difference),[22],0.16 m/z
same,"centroid m/z, on-beads/off-beads",[23],2828.17 m/z
same,"centroid m/z, on-solution/off beads",[23],2827.99 m/z
same,Δ (centroid m/z difference),[23],−0.18 m/z
same,"centroid m/z, on-beads/off-beads",[24],2498.74 m/z
same,"centroid m/z, on-solution/off beads",[24],2498.70 m/z
same,Δ (centroid m/z difference),[24],−0.04 m/z
same,"centroid m/z, on-beads/off-beads",[25],2498.88 m/z
same,"centroid m/z, on-solution/off beads",[25],2498.68 m/z
same,Δ (centroid m/z difference),[25],−0.20 m/z
same,"centroid m/z, on-beads/off-beads",[26],1528.75 m/z
same,"centroid m/z, on-solution/off beads",[26],1528.68 m/z
same,Δ (centroid m/z difference),[26],−0.06 m/z
same,"centroid m/z, on-beads/off-beads",[27],1528.71 m/z
same,"centroid m/z, on-solution/off beads",[27],1528.64 m/z
same,Δ (centroid m/z difference),[27],−0.07 m/z
